Measurements: PMC5000626, “Urinary Dopamine as a Potential Index of the Transport Activity of Multidrug and Toxin Extrusion in the Kidney” (International Journal of Molecular Sciences, 2016)

Substrate: NCCc1ccc(O)c(O)c1
Assay: cells, lysate or membranes
Conditions: other: [3H]dopamine uptake at 1 min, HEK293 cells expressing mMATE1, mean ± S.E., n=3; pH 7.4; 37.0 °C

B1: mMATE1 (Mus musculus) (protein)
chain: MERTEESAPGPGGADAASERRGLRCLLLPGFLEELRALLVLAGPAFLAQLMMFLISFISSVFCGHLGKLELDAVTLAIAVINVTGISVGHGLSSACDTLISQTYGSQNLKHVGVILQRGTLILLLCCFPCWALFINTEQILLLFRQDPDVSRLTQTYVMIFIPALPAAFLYTLQVKYLLNQGIVLPQIMTGIAANLVNALANYVFLYHLHLGVMGSALANTISQFALAIFLFLYILWRRLHQATWGGWSWECLQDWASFLRLAIPSMLMLCIEWWAYEVGSFLSGILGMVELGAQSITYELAIIVYMIPSGFSVAANVRVGNALGAGNIDQAKKSSAISLIVTELFAVTFCVLLLGCKDLVGYIFTTDRDIVALVAQVIPIYAVSHLFEGLACTCGGILRGTGNQKVGAIVNAIGYYVIGLPIGIALMFAAKLGVIGLWSGIIICTTCQTTCFLAFIARLNWKRACQQAQVHANLKVNVALNSAVSHEPAHPVCPESHGEIMMTDLEKKDETQLDQPMNQQQALPIRPKDSNKLSGKQLALRRGLLLLGVVLVLVGGILVRVYIRIE
Km: 530 ± 80 µM
